According to US20100003195A1:
Bridge positions count the residues as written; N and C are the ends.

Columns and labels:
[1] = molecular target: KDR on KDR-transfected 293H cells (human), P35968; assay: competitor 125I-VEGF (300 pM), KDR-transfected 293H cells, peptide 30 µM; details: remark: other sources report otherwise
[2] = molecular target: KDR on KDR-transfected 293H cells (human), P35968; assay: competitor 125I-VEGF (300 pM), KDR-transfected 293H cells, peptide 0.3 µM; details: remark: other sources report otherwise

% inhibition of 125I-labeled VEGF binding [1]: 48%
% inhibition of 125I-labeled VEGF binding [2]: 24.4%
B1: SEQ ID NO:264 (peptide)
peptide: Ac-AGPKWCEEDWYYCMITGTGGGK-NH2
modifications: disulfide 6-13 (inferred); also: fluorescein on C-terminal Lys in FP only
